These are literature values, as cited in paper PMC2983480.

The Kd is the equilibrium constant for the complex coming apart.

In the series the target is Arp2/3 complex (Bos taurus) (UniProt A7MB62).

For WASp VCA (from UniProt P42768), the Kd is 900 nM.
